This is an account of results in the supplement of paper PMC12042874.

± gives the uncertainty stated by the source.

This data set in a line: amyloid nucleation score (Sup35N fusion, yeast selection) (log enrichment); library NNK1; higher = more nucleation; inactive = no reads after selection. In short, it runs like this: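 Random libraries were run with three technical output replicates. In each, psi-negative yeast expressing Sup35N fused to peptides of 20 random codons were induced 24 hours with 100 μM copper sulfate and grown 7 days at 30°C on medium lacking adenine and uracil, and input and output plasmid inserts were Illumina-sequenced. The nucleation score is the DiMSum log enrichment of output over input reads, centred on the mode score of non-aggregating sequences, and sequences under 100 input reads were excluded.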
Regarding IFRTIERTVSIFNRSSR, the amyloid nucleation score was 0.222 ± 0.72. The substance IFSNQSATLGLSVSSWIYLE showed an amyloid nucleation score of -0.983 ± 0.4.

On to IFTFQLLFRNSQRSMYSSVL, for which the amyloid nucleation score turned out to be 0.651 ± 0.63. In the case of IFTLGVALFSIVM it was 4.24 ± 0.067. IFVALRRD: the amyloid nucleation score was -1.29 ± 1.3. In the case of IFVVGAGLHDKTNGYVYRSR it was 0.164 ± 0.24; in that of IFVVGKGDLGCCQI, 0.967 ± 0.35; in that of IFYLRFPVLLVISPRCALYI, 0.623 ± 0.75. For the substance IFYYNRCWLTRYRVICLESI, the amyloid nucleation score was -1.38 ± 0.51. In the case of IGCSCGLHT it was “inactive”. In the case of IGDDLLGVFLYIETNSTPVF it was 0.655 ± 0.74; in that of IGDRNVNLGVQVVVMKE, 7.031 ± 0.048; in that of IGGRGVLKSVSTLTCVLWTW, 0.473 ± 0.92. In the case of IGHVNTYCCIADWSWVRGAG, the amyloid nucleation score was found to be 8.895 ± 0.044. In the case of IGMLGLCGRIPMQAEGGSFR it was 0.712 ± 0.52. Next, IGSFGNRYRVPMRTASGYNM: 0.623 ± 1; IGTLFTSNSYFWYLVVG: 2.51 ± 0.13. IGTSFVYNYFDHFLK gave an amyloid nucleation score of 5.59 ± 0.062. Next, IHGNDPMLTVGSSMYV: 0.323 ± 0.41; IHGSRCVPKSQD: 0.201 ± 0.38. IHIWSSCLSNYKVILGAEVL displayed an amyloid nucleation score of 0.407 ± 0.28. Next, IHKAKISWFLCYMLDDT: 0.097 ± 0.33. For IHSGQAEMGTLRYHSNKCKD, the amyloid nucleation score is -0.554 ± 1.7. In the case of IHVLADIYCVWGGLKEFWTS it was 0.374 ± 0.65; in that of IIASGHDFL, -0.732 ± 0.87.

IIIYRNYALMEYDVGRV: the amyloid nucleation score amounted to 0.75 ± 0.76. The substance IINMGTYRSTMLNILLKEKC yielded an amyloid nucleation score of 2.88 ± 0.27. Substance IKHLKNMGFCVRESLYSDRF showed an amyloid nucleation score of -0.042 ± 0.59.

As for IKLFLRNIV, the amyloid nucleation score is -0.252 ± 0.59.

In turn, IKLQWS registered an amyloid nucleation score of -0.323 ± 0.53. On to IKMYACMYWLVEFLVN, for which the amyloid nucleation score was -0.046 ± 0.86.

Substance IKRTCYPLVRGVPNQIRNLK registered an amyloid nucleation score of -0.091 ± 0.68. Next, ILCIESLSGFPWLICIENSL: 0.135 ± 0.39; ILCSLYYICT: 2.74 ± 0.071; ILCTIFHRTCFLRFRILEHF: “inactive”. With ILDVKAPR, the amyloid nucleation score was 0.446 ± 0.64.

As for ILFDSHANFVGMSCQYRSGR, the amyloid nucleation score amounted to 5.72 ± 0.1.

ILGKFFIDLSDI registered an amyloid nucleation score of -1.16 ± 0.43. Turning to ILGVFNTIVVFKR, the amyloid nucleation score is 4.9 ± 0.066. In the case of ILICKSVRVQYTLSKLW it was 1.8 ± 0.17. Next, ILKEIMIGGRDRTDDWKSHG: -1.3 ± 0.8; ILLLVSISMVKESDQWLING: -0.519 ± 0.51. Substance ILLRSNIFMYFNMTEMPNSC registered an amyloid nucleation score of 6.798 ± 0.055. As for ILNGSPKWNGWRTITCSAVS, the amyloid nucleation score is 0.667 ± 0.44. Next, ILRCRGNALNAYWRGSFNR: 4.59 ± 0.078. Consider ILRRRMHDG, for which the amyloid nucleation score worked out at 0.247 ± 1.4. In the case of ILSLIVFNYDYCSKVWNLLG it was -1.53 ± 0.66; in that of ILTRRSLLRLWIIISDKSFR, -0.695 ± 1.4. In the case of IMFYMTVDGCLSVEYIFR it was -0.704 ± 0.42; in that of IMKLYPLRQSG, 0.453 ± 1.2; in that of IMKSFMDATYVSCFWILMPA, 1.57 ± 0.53. As to IMPSCKLLAAHVADYVFLMR, the amyloid nucleation score was determined as 0.863 ± 0.84. IMRNVQTDA showed an amyloid nucleation score of 0.383 ± 0.52. IMYNCRYWSGVTLHYSVVQH came in with an amyloid nucleation score of 1.89 ± 0.16. For INFDRNFF, the amyloid nucleation score was -0.54 ± 0.31. Next, INGPCLLTYLPLAEVGCCLV: 0.25 ± 0.55; INIGFMKGV: 0.416 ± 0.61. For the substance INLCVPPRNVLFIDRCWTVV, the amyloid nucleation score was 1.29 ± 0.3. In the case of INLVTKYHLSITCSHSCQA it was 7.204 ± 0.05; in that of INMLTWGWELILSGSSVYED, -0.151 ± 0.41; in that of INMRKYSNTGSGRLIFNFAF, 6.039 ± 0.052. In the case of INRTTRNLLSRCRWYNCYKR it was 0.155 ± 1; in that of INRVSLCTVEAVLSHEDACG, -0.494 ± 0.32; in that of INSAHYELN, -1.51 ± 2.4. In the case of INVFREAYIIYCRCEGSGGD it was 7.507 ± 0.059; in that of INVIPDLD, -0.572 ± 0.5. INVWNLSWGNMIRAKNHLGV had an amyloid nucleation score of -0.107 ± 0.53. Next, INYRLYGVIGVAGTGPG: 0.1 ± 0.33; IPGGLNKERPYWYCTQMAGT: 1.25 ± 0.55. Next, IPKVRTRVLGIISTTSLLGG: 0.037 ± 0.97. In the case of IPLVVVNPSARFRLRTKIIR it was 0.908 ± 0.88; in that of IPNISGYPHICMESGGSLVC, 0.004 ± 0.61; in that of IQGGKNYRKQDHTRHVTTGT, -1.37 ± 2.4. Substance IRAFSWTIMLLFYCWWHVEN came in with an amyloid nucleation score of 0.402 ± 0.86. Substance IRISVAVHVIVMNYMYPYLI came in with an amyloid nucleation score of -0.44 ± 1.2. IRLMRWGRCVGISVEGVC returned an amyloid nucleation score of 0.789 ± 0.46. Next, IRSSFMLRCIVSYVPCNTGL: -0.027 ± 1.1; IRSVGRSLRFMYS: 0.204 ± 0.46.

Take IRSYHLVFVGM: the amyloid nucleation score was 5.13 ± 0.1. Next, IRTVAR: 0.142 ± 0.38.

In the case of IRTVKADNMRIWQAQRSSEI, the amyloid nucleation score is 0.157 ± 0.87. Take IRVSFIVQSCILSALEDALN: the amyloid nucleation score is 2.68 ± 0.13.

For ISAKH, the amyloid nucleation score is -0.89 ± 0.65. In the case of ISCQQSE it was -1.57 ± 2.4; in that of ISCVDWAIKCGVVGSLVSET, 0.681 ± 0.99; in that of ISFDSLWDCSYS, -0.232 ± 0.23. In the case of ISFYTVRWLAAGRRFLISF it was 0.224 ± 0.59; in that of ISICTMLLFSPVS, -0.894 ± 0.83. In the case of ISINQIMFAKGPYFERLAEN it was 4.07 ± 0.096. ISNDYGATMFNLGCYI had an amyloid nucleation score of 1.17 ± 0.18.

ISPCDIYRHLSIKGQSCDLI returned an amyloid nucleation score of 0.004 ± 0.32. Next, ISPRHNYPQILMVLLIKVYF: -1.33 ± 1.3; ISSECQVICYLLHEFSPASV: 1.35 ± 0.25; ISSLESRTTMRVV: 0.377 ± 0.5. In the case of ISSYTCCFYSYHQSHVMPLG it was 5.848 ± 0.051; in that of ISTCLRTSFYVDVGNMSFCN, 0.206 ± 0.44.

ISTNLHGDIKMVFVAIPWQE showed an amyloid nucleation score of 4.85 ± 0.09. Next, ISWVPDAVNFFACMHW: 0.094 ± 0.51; ISWYGFAT: “inactive”; ISYGKDNESGCLLHYFHAWV: “inactive”. ISYQVLFIDRWGCRSLPCVW displayed an amyloid nucleation score of 0.395 ± 0.39. Next, ITAWWQVSL: 0.565 ± 0.36; ITDCPCRGISVCVV: -0.288 ± 0.26. The substance ITLRVLFFRGKVLFTSGIQE registered an amyloid nucleation score of 0.71 ± 1.1. Next, ITQIADLWHKMT: -0.954 ± 0.89. In the case of ITVST it was -0.134 ± 1.4.

In the case of ITVSYDKGFSFNLWGIHFKV, the amyloid nucleation score was found to be 0.071 ± 0.28. Next, IVDCYSLDRYRVLLWSS: 0.566 ± 0.36. In the case of IVEMHYMAGWTGMEMMSWAH it was 0.413 ± 1; in that of IVFDSLRGCSF, “inactive”.

Substance IVFLVLRTANRMWNDYHAS gave an amyloid nucleation score of -0.075 ± 0.33. In the case of IVFNIYLILAKWWVTVTYSD it was -1.25 ± 0.5; in that of IVFVLQGRRQ, 0.634 ± 0.88. Consider IVGSSQLSYLGLAFSYGVQV, for which the amyloid nucleation score is -0.903 ± 1.7.

IVGVYLSLNWRHPSRQGSGC showed an amyloid nucleation score of 0.321 ± 0.19. Next, IVMCTVGKSLMIAQKDHAWA: -0.109 ± 0.61; IVNFRVNRPSL: 0.205 ± 0.31. Substance IVVSVVTASI had an amyloid nucleation score of -0.018 ± 0.75.

For the substance IWCHRSGRLFPSMLLKYYRD, the amyloid nucleation score is -0.766 ± 1.7. For the substance IWMWEWQHCSEARKNMMWVS, the amyloid nucleation score came to 2.1 ± 0.13. In the case of IWMYP it was 1.7 ± 0.65.

Substance IYAGHRQHGAV displayed an amyloid nucleation score of -0.386 ± 0.55. In the case of IYAYAIDSFRSLVFFVFMFG it was “inactive”; in that of IYFGSCSRLWPHHVNT, 0.436 ± 0.73; in that of IYGAAFVAEGWTPTLSVGDK, 0.141 ± 0.39.

Turning to IYGGRIS, the amyloid nucleation score is -0.557 ± 0.75. Next, IYGWVHTSMRMRVGTAVLPR: 0.375 ± 0.54; IYINVP: 0.764 ± 0.38. As for IYSNEELIMRVVNQY, the amyloid nucleation score was 0.856 ± 0.58. In the case of KAEMFNYLTNHTP it was -0.033 ± 1.1; in that of KANACGRFTN, 3.72 ± 0.1; in that of KAVYVVNGLFVHCVTR, 0.267 ± 0.21. KCIGKHEAVMKIFNWDEENW showed an amyloid nucleation score of 1.73 ± 0.49. Consider KCNVTQFVRSLYIRMSMLLH, for which the amyloid nucleation score is 0.534 ± 0.39. In the case of KCRVHSSN it was -1.08 ± 1.5; in that of KCTVDQTSNIAACTSVGLCI, 5.36 ± 0.093.

In turn, KCWLHCWWTVNKTLRYAVRS came in with an amyloid nucleation score of -0.531 ± 0.47. As to KCYIVSLNNVGCFTNASS, the amyloid nucleation score came to 5.13 ± 0.072. In the case of KDGFTSRAWPHMFKSLRSQL it was 1.07 ± 0.63. Turning to KDHNVGMYLAGENCHLG, the amyloid nucleation score is 0.915 ± 0.9. Next, KDLEPVSARMFLLLLICLA: 0.057 ± 0.52.
